Molecular target: T1, human endothelial lipase (EL) (human, UniProt Q9Y5X9 21-500, limits assumed)
T1 construct: The assay used endogenous EL in human plasma and a bought recombinant EL standard (Origene Technologies); also called human EL
T1 sequence: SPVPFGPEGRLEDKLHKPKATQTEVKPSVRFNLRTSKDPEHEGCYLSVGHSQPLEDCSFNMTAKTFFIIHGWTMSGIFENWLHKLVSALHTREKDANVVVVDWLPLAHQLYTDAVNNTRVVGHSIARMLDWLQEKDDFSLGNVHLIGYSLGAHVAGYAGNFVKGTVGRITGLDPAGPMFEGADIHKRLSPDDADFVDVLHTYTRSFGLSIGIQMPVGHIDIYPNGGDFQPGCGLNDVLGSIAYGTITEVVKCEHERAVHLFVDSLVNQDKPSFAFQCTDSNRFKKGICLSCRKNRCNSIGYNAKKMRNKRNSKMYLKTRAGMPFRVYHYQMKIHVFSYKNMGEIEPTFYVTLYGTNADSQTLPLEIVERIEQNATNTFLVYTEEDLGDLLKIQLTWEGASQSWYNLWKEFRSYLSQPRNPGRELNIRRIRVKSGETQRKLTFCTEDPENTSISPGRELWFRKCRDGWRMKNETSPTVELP
Assay: MSD immunoassay of human plasma: plate coated with MEDI5884 captures EL, which is detected with a biotinylated EL detection antibody and streptavidin sulfo-TAG. Plasma came from subjects with stable coronary heart disease given three monthly subcutaneous doses of MEDI5884 or placebo. The loss of capturable EL after dosing is what the filing calls target engagement.
Protocol: In particular, the amount of hEL bound by MEDI5884 in human plasma was measured using the Meso Scale Diagnostics (MSD) based immunoassay platform. Briefly, wells on a 96-well plate were coated with MEDI5884 and incubated overnight at 4° C. The next day, wells were washed with PBS containing 0.05% Tween20 wash buffer and blocked with I-Block Buffer (Applied Biosystems) for one hour at room temperature. Plates were washed. Then recombinant EL protein standard (Origene Technologies) and human plasma samples were added to corresponding wells and incubated for one hour at room temperature. After washing, a biotinylated EL detection antibody (Origene Technologies) was added to corresponding wells and incubated for one hour at room temperature. Plates were washed, then a streptavidin, sulfo-TAG antibody (MSD) was added to corresponding wells and incubated for one hour at room temperature. After washing, wells were incubated with Read buffer (MSD). Plates were read using the MESO Sector S 600 plate reader, and data was analyzed using the MSD Discovery Workbench software analysis program.

binding result: binds
B1: MEDI5884 (antibody, human IgG4 S228P, kappa, V domains shown)
VH: QVQLVQSGSELKKPGASVKVSCKASGYTFTNYALNWVRQAPGQGLEWMGWINTYSGVGTYAGEFKGRFVFSLDTSVSTAYLQISSLKAEDTAVYYCARRGFYGRRFFDVWGKGTTVTVSS
VL: DIQLTQSPSSLSASVGDRVTITCKASQSVDYDVDSYMHWYQQKPGKAPKLLIYAASNLASGVPSRFSGSGSGTDFTFTISSLQPEDIATYYCQQTIEDPPTFGGGTKVEIKR
notes: Humanized anti-EL antibody, human IgG4P heavy chain and kappa light chain; It was coated on the plate as the capture reagent in the target engagement immunoassay; also called S6F1-4P

— patent US20230045712A1 (AstraZeneca / MedImmune, published 2023)
